# Measurements taken from US20210032298.
# Residue numbers refer to the chain shown, from its start.
# T1: Myc-tagged CMTM6 C90S mutant (expressed in HEK293 cells)
# T1 chain: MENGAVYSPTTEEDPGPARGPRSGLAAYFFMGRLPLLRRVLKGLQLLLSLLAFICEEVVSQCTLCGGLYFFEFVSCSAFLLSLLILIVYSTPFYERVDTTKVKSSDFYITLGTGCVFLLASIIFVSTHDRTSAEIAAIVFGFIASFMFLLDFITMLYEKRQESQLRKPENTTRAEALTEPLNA
# T2: Myc-tagged CMTM6 C90S+C115S double mutant (expressed in HEK293 cells)
# T2 chain: T1 chain with C115S
# T3: Myc-tagged CMTM6 C115S mutant (expressed in HEK293 cells)
# T3 chain: T1 chain with S90C, C115S
# T4: Myc-tagged CMTM6, wild type (expressed in HEK293 cells)
# T4 chain: T1 chain with S90C
# T5: transmembrane protein 192 (TMEM192), Q8IY95
# T5 chain: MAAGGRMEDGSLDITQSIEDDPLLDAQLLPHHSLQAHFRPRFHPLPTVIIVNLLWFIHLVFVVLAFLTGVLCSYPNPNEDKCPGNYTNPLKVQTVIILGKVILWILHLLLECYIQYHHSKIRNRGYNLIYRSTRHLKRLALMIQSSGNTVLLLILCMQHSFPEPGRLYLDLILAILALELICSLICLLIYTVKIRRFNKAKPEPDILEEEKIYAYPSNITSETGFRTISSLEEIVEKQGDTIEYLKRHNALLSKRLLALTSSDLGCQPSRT
# T6: Niemann-Pick C1 (NPC1; endogenous, in MDA-MB-231 cells), O15118
# T6 chain: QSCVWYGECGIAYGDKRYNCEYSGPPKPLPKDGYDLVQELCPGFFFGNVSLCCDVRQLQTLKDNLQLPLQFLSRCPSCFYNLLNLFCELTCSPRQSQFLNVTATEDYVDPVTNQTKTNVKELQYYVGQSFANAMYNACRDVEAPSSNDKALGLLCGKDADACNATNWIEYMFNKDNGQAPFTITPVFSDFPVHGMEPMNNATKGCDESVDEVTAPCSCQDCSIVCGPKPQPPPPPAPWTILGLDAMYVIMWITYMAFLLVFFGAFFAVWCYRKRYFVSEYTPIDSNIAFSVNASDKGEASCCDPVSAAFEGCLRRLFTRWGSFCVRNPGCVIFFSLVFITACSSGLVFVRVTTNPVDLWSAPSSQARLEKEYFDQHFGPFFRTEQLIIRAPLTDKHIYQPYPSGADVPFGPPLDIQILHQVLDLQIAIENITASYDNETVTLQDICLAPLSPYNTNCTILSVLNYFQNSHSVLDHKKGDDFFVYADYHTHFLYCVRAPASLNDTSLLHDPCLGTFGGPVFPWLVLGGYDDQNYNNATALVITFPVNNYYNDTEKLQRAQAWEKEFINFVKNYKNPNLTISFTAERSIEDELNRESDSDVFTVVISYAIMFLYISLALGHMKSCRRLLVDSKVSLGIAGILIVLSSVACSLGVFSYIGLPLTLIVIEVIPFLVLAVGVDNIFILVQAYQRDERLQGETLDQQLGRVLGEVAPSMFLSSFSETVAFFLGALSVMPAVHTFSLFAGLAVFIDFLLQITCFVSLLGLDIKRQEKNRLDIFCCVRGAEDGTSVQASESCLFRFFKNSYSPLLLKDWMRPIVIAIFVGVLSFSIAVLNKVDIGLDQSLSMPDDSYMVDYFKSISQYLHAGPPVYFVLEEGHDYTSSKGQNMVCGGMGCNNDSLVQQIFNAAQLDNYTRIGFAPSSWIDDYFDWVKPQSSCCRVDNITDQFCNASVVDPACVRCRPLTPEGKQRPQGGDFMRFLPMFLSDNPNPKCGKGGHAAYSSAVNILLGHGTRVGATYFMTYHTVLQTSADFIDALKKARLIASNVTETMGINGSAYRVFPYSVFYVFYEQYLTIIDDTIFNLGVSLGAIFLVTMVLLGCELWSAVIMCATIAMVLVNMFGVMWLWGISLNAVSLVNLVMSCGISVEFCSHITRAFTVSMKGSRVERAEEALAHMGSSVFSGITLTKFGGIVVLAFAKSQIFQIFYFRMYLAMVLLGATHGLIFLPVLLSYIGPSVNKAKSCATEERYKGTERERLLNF
# B1: FLAG-tagged DHHC3 (over-expressed in HEK293 cells) (protein)
# chain: MMLIPTHHFRNIERKPEYLQPEKCVPPPYPGPVGTMWFIRDGCGIACAIVTWFLVLYAEFVVLFVMLIPSRDYVYSIINGIVFNLLAFLALASHCRAMLTDPGAVPKGNATKEFIESLQLKPGQVVYKCPKCCSIKPDRAHHCSVCKRCIRKMDHHCPWVNNCVGENNQKYFVLFTMYIALISLHALIMVGFHFLHCFEEDWTKCSSFSPPTTVILLILLCFEGLLFLIFTSVMFGTQVHSICTDETGIEQLKKEERRWAKKTKWMNMKAVFGHPFSLGWASPFATPDQGKADPYQYVV
# B2: DHHC3 (protein acyltransferase; endogenous, in MDA-MB-231 cells) (protein)
# chain: B1 chain
# How the values were obtained:
# [1] = molecular target: T1, Myc-tagged CMTM6 C90S mutant (expressed …)
# [2] = molecular target: T2, Myc-tagged CMTM6 C90S+C115S double …
# [3] = molecular target: T3, Myc-tagged CMTM6 C115S mutant …
# [4] = molecular target: T4, Myc-tagged CMTM6, wild type (expressed …)
# [5] = molecular target: T5, transmembrane protein 192 (TMEM192), …
# [6] = molecular target: T6, Niemann-Pick C1 (NPC1; endogenous, in …)
Protein,incorporation of 3[H]-palmitate into immunoprecipitated Myc-CMTM6 (HEK293 over-expression) [1],incorporation of 3[H]-palmitate into immunoprecipitated Myc-CMTM6 (HEK293 over-expression) [2],incorporation of 3[H]-palmitate into immunoprecipitated Myc-CMTM6 (HEK293 over-expression) [3],incorporation of 3[H]-palmitate into immunoprecipitated Myc-CMTM6 (HEK293 over-expression) [4],palmitoylation of the substrate after DHHC3 ablation [5],palmitoylation of the substrate after DHHC3 ablation [6]
B1,mutation of C90 (C→S) caused palmitoylation to be diminished by ˜50%,"both mutations together (C90S+C115S) did not diminish palmitoylation (FIG. 23A, lane 6) more than C90S alone",a C115 mutation did not diminish incorporation of 3[H]-palmitate,"CMTM6 incorporates 3[H]-palmitate when DHHC3 is present (FIG. 23A, lane 3), but not when DHHC3 is absent (FIG. 23A, lane 2)",,
B2,,,,,"4/4 putative DHHC3 substrates (ERGIC3, CMTM6, NPC1, transmembrane protein 192 (TMEM192)) lose substantial palmitoylation when DHHC3 is ablated","4/4 putative DHHC3 substrates (ERGIC3, CMTM6, NPC1, transmembrane protein 192 (TMEM192)) lose substantial palmitoylation when DHHC3 is ablated"
